Measurements taken from patent US20030157108A1.
Values joined by “and” are separate entries in the source; they are usually repeats but may differ in a detail not shown here. Identical values can stand only once.

Experiments:
[1] = target: human FcγRIIIA(F158) (human) (UniProt P08637); test: ELISA, Hu4D5 dimers at 1.11 µg/ml; standard = CHO-S
[2] = target: human FcγRIIIA(V158) (human) (UniProt P08637); test: as above
[3] = target: human FcγRIIIA(V158) (human) (UniProt P08637); test: ELISA, Hu4D5 dimers; Table 2 prints 23.1 for the average
[4] = target: human FcγRIIIA(F158) (human) (UniProt P08637); test: ELISA, Hu4D5 dimers at 1.11 µg/ml; standard = CHO-S; average of lots
[5] = target: human FcγRIIIA(V158) (human) (UniProt P08637); test: as above
[6] = target: human FcγRIIIA(Phe158) full-length α-chain co-expressed with γ-chain on CHO cells (human) (UniProt P08637); test: cell-based assay, Hu4D5 monomers on CHO cells transfected with FcγRIIIA α-chain and γ-chain (by text and FIG. 28; footnote letters shifted); standard = CHO-S
[7] = target: human FcγRIIIA(Phe158) full-length α-chain co-expressed with γ-chain on CHO cells (human) (UniProt P08637); test: cell-based assay, Hu4D5 monomers on CHO cells transfected with FcγRIIIA α-chain and γ-chain (by text and FIG. 28; footnote letters shifted); standard = CHO-S; average of lots
[8] = target: human FcγRIIIA(F158) (human) (UniProt P08637); test: ELISA, E27 hexamers (E27:IgE complexes) at 0.12 µg/ml (by text and FIG. 12; footnote letters shifted); standard = HEK293
[9] = target: human FcγRIIIA(V158) (human) (UniProt P08637); test: ELISA, E27 hexamers (E27:IgE complexes) at 0.12 µg/ml (by text and FIG. 13; footnote letters shifted); standard = HEK293
[10] = target: human FcγRIIIA(V158) (human) (UniProt P08637); test: ELISA, E27 dimers at 0.12 µg/ml (by text and FIG. 10; footnote letters shifted); standard = HEK293
[11] = target: human FcγRIIIA(F158) (human) (UniProt P08637); test: ELISA, E27 dimers at 0.12 µg/ml (by text and FIG. 11; footnote letters shifted); standard = HEK293

human FcγRIIIA(V158) (human), sequence (P08637 17-208 F176V limits assumed): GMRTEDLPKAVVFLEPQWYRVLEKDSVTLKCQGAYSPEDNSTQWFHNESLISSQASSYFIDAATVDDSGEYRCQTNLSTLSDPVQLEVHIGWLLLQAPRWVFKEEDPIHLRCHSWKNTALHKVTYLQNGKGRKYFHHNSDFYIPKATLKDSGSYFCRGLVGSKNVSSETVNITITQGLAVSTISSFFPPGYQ
human FcγRIIIA(Phe158) full-length α-chain co-expressed with γ-chain on CHO cells (human), sequence (P08637 17-254, chain 1 of 2): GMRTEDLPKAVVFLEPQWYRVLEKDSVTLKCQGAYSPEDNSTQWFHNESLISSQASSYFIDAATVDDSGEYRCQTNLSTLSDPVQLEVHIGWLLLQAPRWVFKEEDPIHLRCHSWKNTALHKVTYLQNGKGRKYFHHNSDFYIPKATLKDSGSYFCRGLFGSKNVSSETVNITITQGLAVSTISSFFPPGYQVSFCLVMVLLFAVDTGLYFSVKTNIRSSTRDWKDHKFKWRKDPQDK
human FcγRIIIA(Phe158) full-length α-chain co-expressed with γ-chain on CHO cells (human), sequence (P30273 19-86, chain 2 of 2, further chain): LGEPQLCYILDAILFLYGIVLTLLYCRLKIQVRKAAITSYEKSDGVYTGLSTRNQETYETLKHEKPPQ
human FcγRIIIA(F158) (human), sequence (P08637 17-208 limits assumed): as the sequence (P08637 17-208 F176V limits assumed) above, with V160F counted along it

Substance | ratio A(variant)/A(standard) at A490nm [1] | ratio A(variant)/A(standard) at A490nm [8] | ratio A(variant)/A(standard) at A490nm [10] | ratio A(variant)/A(standard) at A490nm [11] | also measured
E27 with S298A/E333A/K334A substitutions in the Fc region, expressed in HEK293 cells (antibody) |  | 1.87 |  |  | ratio A(variant)/A(standard) at A490nm [9]: 1.15
Hu4D5 with S298A/E333A/K334A substitutions in the Fc region, expressed in HEK293 cells (antibody) | 20.8 |  |  |  | 

The next lines start with results.

ratio A(variant)/A(standard) at A490nm [1] | ratio A(variant)/A(standard) at A490nm [8] | ratio A(variant)/A(standard) at A490nm [10] | ratio A(variant)/A(standard) at A490nm [11] | Substance | also measured
32.8 and 32.9 and 34.8 |  |  |  | Hu4D5 with S298A/E333A/K334A substitutions in the Fc region, expressed in Lec13 cells (fucose-deficient) (antibody) | ratio A(variant)/A(standard) at A490nm [2]: 25.4 and 23.8 and 22.5; fold improvement in binding [3]: 21 fold; ratio A(variant)/A(standard) at A490nm [4]: 33.5; ratio A(variant)/A(standard) at A490nm [5]: 23.1; ratio variant/standard [6]: 26.8 and 25.9; ratio variant/standard [7]: 26.4
 | 1.92 | 6.44 | 7.63 | anti-IgE antibody E27 expressed in Lec13 cells (fucose-deficient) | 
 | 0.65 | 0.32 | 0.35 | anti-IgE antibody E27 expressed in CHO-DP12 cells on plates (CHO-P) | 
